# Measured values as given in patent US20120269834A1, “IMMUNOGLOBULIN CLEAVAGE FRAGMENT VACCINE COMPOSITIONS” (priority 2010, published 2012).
# Experiments:
# human IgG1 = human IgG1 (Homo sapiens, UniProt P01857); assay: action of human and bacterial proteases on human IgG1 (Table 1); format: biochemical; settings: for Major Product: None = no detectable cleavage in 24 hours; for Cleaved Site: human IgG1 heavy chain, EU numbering
# Description: Table 1 is a summary of the findings concerning the action of human proteases and two bacterial proteases on human IgG1. The term “Coagulation proteinases” refers to serum coagulation cascade proteins including; FXIIa, FIXa, FXa, thrombin and activated protein C; plasmin was plasminogen co-incubated with plasminogen activators; tPA, streptokinase and staphylokinase; “plasminogen activators alone” are without plasminogen; and the MMPs were recombinant proteinases obtained either as the active form or the pro-enzyme as detailed in the Materials; and “None” denotes no detectable cleavage in 24 hours. Except where indicated all enzymes where human. The residue designations are for the EU numbering system for the IgG1 antibody heavy chain where the 25 residues of SEQ ID NO: 1 corresponds to residues 219 through 243 of the complete mature heavy chain.
# platelets [1] = assay: circulating platelet counts in dogs; format: in vivo, dog; settings: for platelet clearance: dose finding
# Description: First, the c7E3 antibody antigen binding and platelet depletion parameters were established in dogs.
# c7E3 IgG and c7E3 IgG single-cleaved by IdeS protease were also compared in vivo. Three groups of 5 animals received either saline control, intact c7E3 IgG (0.05 mg/kg) or c7E3 single-cleaved IgG (0.05 mg/kg). Platelet counts were monitored at baseline and at 2, 24, 48, 72 and 96 hours post-administration. Limiting the study to 5 days minimized the likelihood of anti-c7E3 immune responses that might confound the interpretation of the results. The results are presented in FIG. 3 as the mean platelet count±SD for each animal group at each time point. The extent of the error bars connotes the normal variability of platelet counts in different animals (for example, the predose counts for the 5 animals in the single-cleaved IgG treatment group were 175,000, 355,000, 305,000, 276,000 and 334,000 per μL, respectively).
# To be consistent with the prior experiments, the variants of c7E3 were all administered at the 0.05 mg/kg dose. The unique aspect of the experiment (groups 6 and 7) involves the infusion of the first targeting mAb followed by the cleavage site specific mAb after a 10 minute delay. The cleavage site specific IdeS cleavage site mAb, 2095-2, was administered at 0.5 mg/kg; 10-fold higher than the dose used for all of the c7E3 variants. The higher dose was chosen in order to maximize the complexation of cleavage site specific mAb with platelet-bound c7E3 variants. All mAbs were delivered by slow infusion over a 20 minute period. Platelet counts were monitored over a 96-hour period. The platelet counts were normalized to the pre-dose count within each animal for clarity of presentation and to minimize the normal variability in numerical platelet counts in these small 3-animal groups.
# platelets [2] = assay: circulating platelet counts in dogs; format: in vivo, dog; settings: dose finding
# [3] = FIG. 12 study, groups of 3 animals, c7E3 variants 0.05 mg/kg, 2095-2 0.5 mg/kg
# Chain of human IgG1 (P01857 1-330 isoform P01857-1, other chains not shown): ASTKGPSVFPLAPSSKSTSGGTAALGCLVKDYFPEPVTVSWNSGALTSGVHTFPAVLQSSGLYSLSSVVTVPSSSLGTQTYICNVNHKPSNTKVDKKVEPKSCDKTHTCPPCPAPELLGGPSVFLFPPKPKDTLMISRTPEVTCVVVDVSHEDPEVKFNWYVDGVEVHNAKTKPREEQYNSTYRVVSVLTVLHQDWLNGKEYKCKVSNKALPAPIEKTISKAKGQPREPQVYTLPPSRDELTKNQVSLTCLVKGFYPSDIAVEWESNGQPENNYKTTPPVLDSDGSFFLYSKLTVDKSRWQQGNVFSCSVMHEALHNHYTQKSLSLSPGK
molecule,measurement,setting,value
"Cathepsin S: human cysteine endopeptidase (protein, UniProt P25774 115-331, looked up) Cathepsin S: LPDSVDWREKGCVTEVKYQGSCGACWAFSAVGALEAQLKLKTGKLVSLSAQNLVDCSTEKYGNKGCNGGFMTTAFQYIIDNKGIDSDASYPYKAMDQKCQYDSKYRAATCSKYTELPYGREDVLKEAVANKGPVSVGVDARHPSFFLYRSGVYYEPSCTQNVNHGVLVVGYGDLNGKEYWLVKNSWGHNFGEEGYIRMARNKGNHCGIASFPSYPEI",Major Product,human IgG1,None
"Plasmin: plasminogen co-incubated with plasminogen activators (protein, UniProt P00747 20-580; P00747 581-810, looked up, plasmin) Plasmin heavy chain A: EPLDDYVNTQGASLFSVTKKQLGAGSIEECAAKCEEDEEFTCRAFQYHSKEQQCVIMAENRKSSIIIRMRDVVLFEKKVYLSECKTGNGKNYRGTMSKTKNGITCQKWSSTSPHRPRFSPATHPSEGLEENYCRNPDNDPQGPWCYTTDPEKRYDYCDILECEEECMHCSGENYDGKISKTMSGLECQAWDSQSPHAHGYIPSKFPNKNLKKNYCRNPDRELRPWCFTTDPNKRWELCDIPRCTTPPPSSGPTYQCLKGTGENYRGNVAVTVSGHTCQHWSAQTPHTHNRTPENFPCKNLDENYCRNPDGKRAPWCHTTNSQVRWEYCKIPSCDSSPVSTEQLAPTAPPELTPVVQDCYHGDGQSYRGTSSTTTTGKKCQSWSSMTPHRHQKTPENYPNAGLTMNYCRNPDADKGPWCFTTDPSVRWEYCNLKKCSGTEASVVAPPPVVLLPDVETPSEEDCMFGNGKGYRGKRATTVTGTPCQDWAAQEPHRHSIFTPETNPRAGLEKNYCRNPDGDVGGPWCYTTNPRKLYDYCDVPQCAAPSFDCGKPQVEPKKCPGR Plasmin light chain B: VVGGCVAHPHSWPWQVSLRTRFGMHFCGGTLISPEWVLTAAHCLEKSPRPSSYKVILGAHQEVNLEPHVQEIEVSRLFLEPTRKDIALLKLSSPAVITDKVIPACLPSPNYVVADRTECFITGWGETQGTFGAGLLKEAQLPVIENKVCNRYEFLNGRVQSTELCAGHLAGGTDSCQGDSGGPLVCFEKDKYILQGVTSWGLGCARPNKPGVYVRVSRFVTWIEGVMRNN",Major Product,human IgG1,Fab + Fc
same,Cleaved Site,human IgG1,Lys^223-
"Macrophage metalloelastase (MMP-12): recombinant human MMP (protein, UniProt P39900 106-470, looked up) Macrophage metalloelastase: GPVWRKHYITYRINNYTPDMNREDVDYAIRKAFQVWSNVTPLKFSKINTGMADILVVFARGAHGDFHAFDGKGGILAHAFGPGSGIGGDAHFDEDEFWTTHSGGTNLFLTAVHEIGHSLGLGHSSDPKAVMFPTYKYVDINTFRLSADDIRGIQSLYGDPKENQRLPNPDNSEPALCDPNLSFDAVTTVGNKIFFFKDRFFWLKVSERPKTSVNLISSLWPTLPSGIEAAYEIEARNQVFLFKDDKYWLISNLRPEPNYPKSIHSFGFPNFVKKIDAAVFNPRFYRTYFFVDNQYWRYDERRQMMDPGYPKLITKNFQGIGPKIDAVFYSKNKYYYFFQGSNQFEYDFLLQRITKTLKSNSWFGC",Major Product,human IgG1,F(ab′)2 +
same,Cleaved Site,human IgG1,Pro^232-
"Proteinase 3: human protease (protein, UniProt P24158 28-248, looked up) Myeloblastin: IVGGHEAQPHSRPYMASLQMRGNPGSHFCGGTLIHPSFVLTAAHCLRDIPQRLVNVVLGAHNVRTQEPTQQHFSVAQVFLNNYDAENKLNDVLLIQLSSPANLSASVATVQLPQQDQPVPHGTQCLAMGWGRVGAHDPPAQVLQELNVTVVTFFCRPHNICTFVPRRKAGICFGDSGGPLICDGIIQGIDSFVIWGCATRLFPDFFTRVALYVDWIRSTLR",Major Product,human IgG1,None
"c7E3 IgG: anti-platelet integrin (αIIbβIIIa) murine-human IgG1 chimeric antibody (antibody, chains of the INN, looked up, V domains shown, IgG1, anti-platelet integrin (αIIbβIIIa) murine-human IgG1 chimeric antibody) VH: EVQLQQSGTVLARPGASVKMSCEASGYTFTNYWMHWVKQRPGQGLEWIGAIYPGNSDTSYIQKFKGKAKLTAVTSTTSVYMELSSLTNEDSAVYYCTLYDGYYVFAYWGQGTLVTVSA VL: EIVLTQSPVTLSVTPGDSVSLSCRASRDISNNLHWFQQTSHESPRLLIKYASQSMSGIPSRFSGSGSGTDFTLSINSVETEDFGMYFCQQTNSWPYTFGGGTKLEIK",platelet count recovery,"platelets [1]; 0.05 mg/kg, by 96 hours",approximately 50 % of the pre-dose level
same,time of platelet nadir,"platelets [1]; 0.05 mg/kg, groups of 5 animals",24 h
same,effect on platelet numbers,"platelets [1]; 0.05 mg/kg, groups of 5 animals, monitored to 96 hours",substantial decrease
same,start of recovery of platelet numbers,"platelets [1]; FIG. 12 study, 0.05 mg/kg",approximately 72 hours
same,time of platelet nadir,"platelets [1]; FIG. 12 study, 0.05 mg/kg",24 to 48 h
same,effect on platelet numbers,platelets [1]; [3],substantial platelet clearance
same,platelet clearance in pilot study,"platelets [1]; after 24 hours, recovery over 5 days",profound platelet clearance
same,αIIβ3 receptor blockade,platelets [1]; calculated for the 0.05 mg/kg dose,about 5%
same,platelet clearance,"platelets [1]; 0.05 mg/kg, 2 hours",little effect
same,platelet clearance,"platelets [1]; 0.05 mg/kg, 24 hours",> 90%
same,time to platelet clearance,platelets [1]; doses >0.05 mg/kg,≤ 24 h
same,platelet clearance,"platelets [2]; 0.01 mg/kg, 2 and 24 hours",ineffective
same,platelet clearance,"platelets [2]; 0.2 mg/kg, at 2 hours, maintained at 24 hours",profound platelet clearance
"c7E3 F(ab′)2: F(ab′)2 of c7E3 prepared using the bacterial enzyme IdeS (antibody, chains of the INN, looked up, V domains shown, F(ab')2 IdeS-generated, F(ab′)2 of c7E3 prepared using the bacterial enzyme IdeS) VH: EVQLQQSGTVLARPGASVKMSCEASGYTFTNYWMHWVKQRPGQGLEWIGAIYPGNSDTSYIQKFKGKAKLTAVTSTTSVYMELSSLTNEDSAVYYCTLYDGYYVFAYWGQGTLVTVSA VL: EIVLTQSPVTLSVTPGDSVSLSCRASRDISNNLHWFQQTSHESPRLLIKYASQSMSGIPSRFSGSGSGTDFTLSINSVETEDFGMYFCQQTNSWPYTFGGGTKLEIK",effect on platelet numbers,platelets [1]; [3],without effect
"Chymase: human protease (protein, UniProt P23946 22-247, looked up) Chymase: IIGGTECKPHSRPYMAYLEIVTSNGPSKFCGGFLIRRNFVLTAAHCAGRSITVTLGAHNITEEEDTWQKLEVIKQFRHPKYNTSTLHHDIMLLKLKEKASLTLAVGTLPFPSQFNFVPPGRMCRVAGWGRTGVLKPGSDTLQEVKLRLMDPQACSHFRDFDHNLQLCVGNPRKTKSAFKGDSGGPLLCAGVAQGIVSYGRSDAKPPAVFTRISHYRPWINQILQAN",Major Product,human IgG1,None
